By pKd is commonly meant the negative decadic logarithm of the Kd, by convention in mol/L.

This is an account of results in publication PMC11978755.

For assay [1], the target named is Recombinant hemagglutinin-esterase-fusion (HEF) ectodomain of influenza D virus D/swine/Oklahoma/1334/2011 (influenza D virus (D/swine/Oklahoma/1334/2011)). Description: BLI. In general terms: Biolayer interferometry detects binding as a change in optical thickness at a sensor tip.
Assay [2] addresses Recombinant hemagglutinin-esterase-fusion (HEF) ectodomain of influenza C virus C/Johannesburg/1/1966 (influenza C virus (C/Johannesburg/1/1966)) (UniProt P07975). Description: BLI.

pKd: −log10 of the molar value.

UniProt P07975, sequence (P07975 15-630): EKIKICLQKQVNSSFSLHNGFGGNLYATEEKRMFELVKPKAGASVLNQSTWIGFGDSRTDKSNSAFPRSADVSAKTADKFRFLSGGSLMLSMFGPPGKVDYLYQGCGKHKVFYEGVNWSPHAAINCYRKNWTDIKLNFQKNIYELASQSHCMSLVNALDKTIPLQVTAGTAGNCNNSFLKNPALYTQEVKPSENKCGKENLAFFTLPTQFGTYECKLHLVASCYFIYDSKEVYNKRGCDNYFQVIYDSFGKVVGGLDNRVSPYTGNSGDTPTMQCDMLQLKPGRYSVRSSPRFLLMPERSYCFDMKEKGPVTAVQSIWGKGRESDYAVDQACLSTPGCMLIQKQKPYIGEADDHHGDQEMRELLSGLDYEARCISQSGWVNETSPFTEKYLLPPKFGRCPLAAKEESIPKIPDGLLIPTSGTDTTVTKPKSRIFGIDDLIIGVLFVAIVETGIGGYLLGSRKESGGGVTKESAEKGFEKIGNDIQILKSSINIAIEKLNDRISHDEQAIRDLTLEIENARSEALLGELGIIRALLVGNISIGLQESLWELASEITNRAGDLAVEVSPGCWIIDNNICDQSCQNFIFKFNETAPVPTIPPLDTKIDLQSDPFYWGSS

“CR9114 IgG (human IgG1, wild type) (antibody)”: the pKd in assay [1] and in assay [2] was below 4.00 throughout.
With “CR9114 IgM (pentameric, ten antigen binding sites) (antibody)”, the pKd in assay [1] and in assay [2] was below 4.00 each time.
